The values below come from patent US20210238260.

Numbering of substitutions follows the chain as printed. In names and notes the source's numbering stands. A value given as a limit tells only on which side of the number the result lay.

Series [1] deals with plasma purified human AT-III (Molecular Innovations), in complex with low molecular weight heparin.
Series [2] deals with antithrombin III (plasma purified human AT-III), used as the AT-III/unfractionated heparin complex. Kind of series: K0.5 ratio to Catalyst Biosciences WT FIXa, AT-III/UFH inhibition assay (from lower-limit K0.5).
Series [3] concerns the target T1, Antithrombin III (plasma purified human AT-III, Molecular Innovations). Kind of series: same assay; ratio of the lower-limit K0.5 to recombinant wild-type FIXa (Catalyst Biosciences WT).
Series [4] deals with T1, Antithrombin III (plasma purified human …). Kind of series: AT-III/UFH inhibition, standard assay (35 nM-0 nM AT-III); 999 nM is the assigned lower limit for less than 10% inhibition.
Series [5] concerns the target T2, plasma purified human antithrombin III (AT-III), in complex with unfractionated heparin. Put plainly: K0.5 of variant over K0.5 of Catalyst Biosciences WT FIXa; AT-III/UFH inhibition assay.
For series [6], the target named is T2, plasma purified human antithrombin III …. Put plainly: K0.5 of variant over K0.5 of Catalyst Biosciences WT FIXa; AT-III/UFH inhibition assay; from lower limit K0.5.
The target in series [7] is plasma purified human AT-III (antithrombin III). Kind of series: same assay; ratio to K0.5 of Catalyst Biosciences WT FIXa.
In series [8] the target is plasma purified human antithrombin III (AT-III), in complex with unfractionated heparin (UFH). Put plainly: ratio of K0.5 for AT-III/UFH inhibition, variant over Catalyst Biosciences WT FIXa; calculated from the lower-limit K0.5.
For series [9], the target named is T1, Antithrombin III (plasma purified human …). Put plainly: AT-III/UFH inhibition, expanded sensitivity assay (1000 nM-0 nM and 5000-0 nM AT-III); assigned lower limit for less than 10% inhibition.

Factor X, P00742, sequence (P00742 whole entry, looked up): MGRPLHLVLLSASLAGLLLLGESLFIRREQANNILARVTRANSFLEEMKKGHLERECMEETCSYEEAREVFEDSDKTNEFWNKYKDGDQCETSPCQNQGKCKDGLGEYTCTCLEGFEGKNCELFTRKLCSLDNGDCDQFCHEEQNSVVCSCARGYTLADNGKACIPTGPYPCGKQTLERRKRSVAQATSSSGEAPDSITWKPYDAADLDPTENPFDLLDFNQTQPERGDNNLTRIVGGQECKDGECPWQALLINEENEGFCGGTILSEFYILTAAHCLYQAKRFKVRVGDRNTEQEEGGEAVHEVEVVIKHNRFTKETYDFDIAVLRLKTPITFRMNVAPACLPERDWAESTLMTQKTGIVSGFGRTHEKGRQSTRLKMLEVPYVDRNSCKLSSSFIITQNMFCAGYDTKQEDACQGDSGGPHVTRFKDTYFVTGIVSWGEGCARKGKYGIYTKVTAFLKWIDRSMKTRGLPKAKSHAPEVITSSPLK
Factor X (FX), P00742, sequence (P00742 whole entry, looked up): as above

B1: FIXa-K293A/R338A/R403A (protein)
chain 1: YNSGKLEEFVQGNLERECMEEKCSFEEAREVFENTERTTEFWKQYVDGDQCESNPCLNGGSCKDDINSYECWCPFGFEGKNCELDVTCNIKNGRCEQFCKNSADNKVVCSCTEGYRLAENQKSCEPAVPFPCGRVSVSQTSKLTR
chain 2: VVGGEDAKPGQFPWQVVLNGKVDAFCGGSIVNEKWIVTAAHCVETGVKITVVAGEHNIEETEHTEQKRNVIRIIPHHNYNAAINKYNHDIALLELDEPLVLNSYVTPICIADAEYTNIFLKFGSGYVSGWGRVFHKGRSALVLQYLRVPLVDRATCLASTKFTIYNNMFCAGFHEGGRDSCQGDSGGPHVTEVEGTSFLTGIISWGEECAMKGKYGIYTKVSAYVNWIKEKTKLT
In general, KM refers to the substrate concentration at which the rate is half of its maximum. A word on the kcat: it is the number of substrate molecules converted per active site and unit of time at saturation. For orientation: kcat/KM means the turnover number divided by the Michaelis constant. Take B1: in the series with Factor X, P00742, the KM was found to be 0.0654 µM. Moreover, the “% of WT kcat/KM” value with Factor X (FX), P00742 amounted to 55%. Further, in the series with Factor X (FX), P00742, the kcat is 1.6 s⁻¹. In addition, the kcat/KM in the series with Factor X (FX), P00742 was found to be 2.5e+07 M⁻¹ s⁻¹. In addition, the values for the K0.5 in [1] and in series [4] were 497 nM and above 999 nM, respectively. Besides, the results for the K0.5-mut/K0.5-wt in series [1], in [2] and in [3] were 16.9 fold, above 51.7 fold and above 51.7, respectively.

B2: FIXa D203N/F205T/R318Y/E410N (protein)
chain 1: B1 chain 1
chain 2: B1 chain 2 with D23N, F25T, A113K, R138Y, A158R, A223R, E230N
In the case of B2, the K0.5-mut/K0.5-wt in [5] stood at 66.2. In addition, the KM with Factor X (FX), P00742 came to 0.0457 µM.

B3: FIXa-K293E/R338E/R403E (protein)
chain 1: B1 chain 1
chain 2: B1 chain 2 with A113E, A158E, A223E
For the protein B3, the KM in the series with Factor X, P00742 was found to be 0.05 µM. Besides, in the series with Factor X (FX), P00742, the “% of WT kcat/KM” value stood at 37%, the kcat came out at 0.8 s⁻¹ and the kcat/KM amounted to 1.7e+07 M⁻¹ s⁻¹. In series [1], this protein had a K0.5 of 418 nM and a K0.5-mut/K0.5-wt of 14.2 fold. The K0.5-mut/K0.5-wt in series [2] was above 51.7 fold. The K0.5-mut/K0.5-wt in series [3] was above 51.7. The K0.5 in series [4] is above 999 nM.

B4: FIXa D104N/K106S/R318Y/R338E/R403E/E410N (protein)
chain 1: B1 chain 1 with D104N, K106S
chain 2: B1 chain 2 with A113K, R138Y, A158E, A223E, E230N
On to B4, for which, in the series with Factor X (FX), P00742, the KM turned out to be 0.0385 µM. This protein came in with a K0.5-mut/K0.5-wt in series [6] above 517.

B5: FIXa-D203N/F205T/R318Y/E410N (protein)
chain 1: B1 chain 1
chain 2: B1 chain 2 with D23N, F25T, A113K, R138Y, A158R, A223R, E230N
Consider B5, for which the KM with Factor X, P00742 came to 0.0457 µM. Further, the turnover number (kcat) with Factor X (FX), P00742 worked out at 1.6 s⁻¹. Also, the K0.5-mut/K0.5-wt in [7] stood at 66.2.

B6: FIXa A103N/N105S/R318Y/R338E/R403E/E410N (protein)
chain 1: B1 chain 1 with A103N, N105S
chain 2: B1 chain 2 with A113K, R138Y, A158E, A223E, E230N
B6 registered a K0.5-mut/K0.5-wt in series [5] of 475. Also, the Michaelis-Menten constant (KM) with Factor X (FX), P00742 stood at 0.0447 µM.

B7: FIXa-A103N/N105S/R318Y/R338E/R403E/E410N (protein)
chain 1: B1 chain 1 with A103N, N105S
chain 2: B1 chain 2 with A113K, R138Y, A158E, A223E, E230N
In the case of B7, the KM with Factor X, P00742 amounted to 0.0447 µM. Further, in the series with Factor X (FX), P00742, the kcat is 5.4 s⁻¹. The K0.5-mut/K0.5-wt in series [7] was 475.

B8: FIXa-R318Y/R338E/T343R/R403E/E410N (protein)
chain 1: B1 chain 1
chain 2: B1 chain 2 with A113K, R138Y, A158E, T163R, A223E, E230N
Turning to B8, in the series with Factor X, P00742, the “% of WT kcat/KM” value amounted to 1217%, the kcat was found to be 11.8 s⁻¹ and the catalytic efficiency (kcat/KM) was determined as 5.4e+08 M⁻¹ s⁻¹. In addition, in the series with Factor X (FX), P00742, the KM came to 0.0223 µM; the “catalytic activity (kcat/KM) for activation of FX” value is given as “displayed some of the greatest increases in catalytic activity”; the kcat of FX activation by FIXa (Xase complex with FVIIIa, PC/PS vesicles, Ca2+) came to 9.7 s⁻¹. In [8], the K0.5-mut/K0.5-wt was above 517 fold.

B9: FIXa A103N/N105S/Y155F/R318Y/R338E/R403E/E410N (protein)
chain 1: B1 chain 1 with A103N, N105S
chain 2: B1 chain 2 with A113K, R138Y, A158E, A223E, E230N
For the protein B9, the KM with Factor X (FX), P00742 worked out at 0.0507 µM. Moreover, the K0.5-mut/K0.5-wt in [6] is above 517.

B10: FIXa-R318Y/R338E/R403E (protein)
chain 1: B1 chain 1
chain 2: B1 chain 2 with A113K, R138Y, A158E, A223E
With B10, in the series with Factor X, P00742, the KM was 0.0537 µM. The K0.5-mut/K0.5-wt in [2] was above 517 fold; in series [3], above 517. Besides, in series [9], the K0.5 was above 10 µM.

B11: FIXa Y155F/R318Y/R338E/R403E/E410N (protein)
chain 1: B1 chain 1
chain 2: B1 chain 2 with A113K, R138Y, A158E, A223E, E230N
Take B11: in the series with Factor X (FX), P00742, the KM was found to be 0.0304 µM. Also, the K0.5-mut/K0.5-wt in series [6] was above 517.

B12: FIXa D104N/K106S/Y155F/R318Y/R338E/R403E/E410N (protein)
chain 1: B1 chain 1 with D104N, K106S
chain 2: B1 chain 2 with A113K, R138Y, A158E, A223E, E230N
On to B12, for which, in the series with Factor X (FX), P00742, the KM is 0.048 µM. In series [6], this protein showed a K0.5-mut/K0.5-wt above 517.
